Experiments:
[1] = molecular target: T1, purified fragment of human CNX containing Amino acids 1-481 fused to human FC region (FC-CNX) (human) (UniProt P27824); experiment: BLI (Octet), scFv on penta-His sensor, FC-CNX 90, 30, 10, 3.3 nM
T1 sequence (looked up): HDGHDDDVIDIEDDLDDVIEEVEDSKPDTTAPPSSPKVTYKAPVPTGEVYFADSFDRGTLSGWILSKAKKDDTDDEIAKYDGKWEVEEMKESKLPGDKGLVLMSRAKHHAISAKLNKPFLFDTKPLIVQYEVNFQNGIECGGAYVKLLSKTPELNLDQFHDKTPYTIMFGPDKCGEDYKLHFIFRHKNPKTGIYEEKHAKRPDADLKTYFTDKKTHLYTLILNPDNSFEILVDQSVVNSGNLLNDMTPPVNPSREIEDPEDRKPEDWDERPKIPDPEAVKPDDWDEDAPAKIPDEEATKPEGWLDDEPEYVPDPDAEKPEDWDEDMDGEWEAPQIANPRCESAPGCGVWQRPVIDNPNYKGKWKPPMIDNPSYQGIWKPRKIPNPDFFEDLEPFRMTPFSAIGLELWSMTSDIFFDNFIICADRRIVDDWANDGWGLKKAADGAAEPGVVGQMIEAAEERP

[2] = molecular target: T1, purified fragment of human CNX containing Amino acids 1-481 fused to human FC region (FC-CNX) (human); experiment: BLI (Octet), scFv on penta-His sensor, FC-CNX 90, 30, 10, 3.3 nM; printed without the letter E
[3] = molecular target: T1, purified fragment of human CNX containing Amino acids 1-481 fused to human FC region (FC-CNX) (human); experiment: BLI (Octet), scFv on penta-His sensor, FC-CNX 90, 30, 10, 3.3 nM; same value in the inset box of the Fitting View (Full X^2 0.108, Full R^2 0.9955)

B1: scFv clone 8 (C008) (scFv, part only; not given: His and myc tags, phage protein, not shown: another chain or arm of the molecule; large carriers; small tags and cut ends)
scFv: QVQLVQSGGGVVQPGRSLRLSCAASGFTVSSNYMSWVRQAPGKGLEWVSVIYSGGSTYYADSVKGRFTISRDNSKNTLYLQMNSLRAEDTAVYYCARGSRAVAGAFDYWGQGTLVTVSSGGGGSGGGGSGGGGSYSELTQDPAVSVALGQTVRITCQGDSLRTYYANWYQQKPGQAPVLVMYAKNHRPSGIPDRFSGSSSGNTASLTITGAQAEDEADYYCGSRDSSGNHPVFGGGTKVTVL
For B1, the koff [1] was 0.000149 s⁻¹, the kon [2] was 1.14e+06 M⁻¹ s⁻¹ and the Kd [3] was 0.131 nM.
